The source of these data is PMC7901269 (Cell, 2021).

Sequences and labels used below:
B1: mAb 150 (Fab, V domains shown)
VH: QVQLVESGGGLIQPGGSLRLSCAASGVTVSSNYMSWVRQAPGKGLEWVSIIYSGGTTYYADSVKGRFTISRDSSMNTLYLQMNSLRAEDTAVYYCARDLMVYGIDVWGQGTTVTVSS
VL: EIVMTQSPSSLSASVGDRVTITCRASQGISSYLAWYQQKPGKAPKLLIYAASTLQSGVPSRFSGSGSGTDFTLTISSLQPEDFATYYCQQLDSYPPGYTFGQGTKVDIK
notes: source: from Dejnirattisai et al., 2021; human mAbs expressed in HEK293T cells
B2: chimera 253H/165L (Fab, V domains shown)
VH: not shown
VL: DIVMTQSPGTLSLSPGERATLSCRASQSVRSSYLAWYQQKPGQAPRLLIYGASRRGTGIPDRFSGSGSGTDFTLTISRLEPEDFAVYYCQQYGSSPWTFGQGTKVEIK
notes: also called 253-165; 353/165; source: from Dejnirattisai et al., 2021; human mAbs expressed in HEK293T cells
B3: mAb 88 (Fab, V domains shown)
VH: QLQLQESGPGLVKPSQTLSLTCTVSGGSISSGSYNWTWIRQPAGKGLEWIGRIYNSGSTNYNPSLKSRVTISVDTSKNQLSLKVRSVTAADTAVYYCARHCSGGTCYPKYYYGMDVWGQGTTVTVSS
VL: QSALTQPPSVSEAPRQRVTISCSGSSSNIGNNAVNWYQQFPGKAPKLLIYYDDLLPSGVSDRFSGSKSGTSASLAISGVQSEDEADYYCAAWDDSLNVVVFGGGTKLTVL

For the assay, the target named is His-tagged SARS-CoV-2 RBD (native RBD) (SARS-CoV-2, Wuhan (native RBD), UniProt P0DTC2). The assay can be described thus: BLI. To be noted: both partners purified.
In general, Kd refers to the constant that tells how readily two partners part at equilibrium. A low value points to a tighter complex. The molecule B1 registered a Kd of 0.19 nM.

B2 displayed a Kd of 0.73 nM.

The molecule B3 registered a Kd of 0.64 nM.
